Test results: PMC3734830 (Cell Death & Disease, 2013)

Molecular target: cytochrome c (human (endogenous in SK-N-BE), UniProt P99999 1-105)
Experiment: co-IP

Sequence of cytochrome c (P99999 whole entry): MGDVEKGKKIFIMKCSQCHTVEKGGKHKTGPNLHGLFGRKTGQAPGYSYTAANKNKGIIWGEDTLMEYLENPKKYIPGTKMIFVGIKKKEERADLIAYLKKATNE

B1: Neuroglobin (natural protein, human (endogenous in SK-N-BE), UniProt Q9NPG2 1-151, looked up)
chain: MERPEPELIRQSWRAVSRSPLEHGTVLFARLFALEPDLLPLFQYNCRQFSSPEDCLSSPEFLDHIRKVMLVIDAAVTNVEDLSSLEEYLASLGRKHRAVGVKLSSFSTVGESLLYMLEKCLGPAFTPATRAAWSQLYGAVVQAMSRGWDGE
For B1, the “fold NGB–cytochrome c association in mitochondria after E2” value was about 3.3 fold.
